Experimental data from patent US7070977.

System: PFEK-protease D-G-6×HIS zymogen
Sequence (chain, as listed by the source): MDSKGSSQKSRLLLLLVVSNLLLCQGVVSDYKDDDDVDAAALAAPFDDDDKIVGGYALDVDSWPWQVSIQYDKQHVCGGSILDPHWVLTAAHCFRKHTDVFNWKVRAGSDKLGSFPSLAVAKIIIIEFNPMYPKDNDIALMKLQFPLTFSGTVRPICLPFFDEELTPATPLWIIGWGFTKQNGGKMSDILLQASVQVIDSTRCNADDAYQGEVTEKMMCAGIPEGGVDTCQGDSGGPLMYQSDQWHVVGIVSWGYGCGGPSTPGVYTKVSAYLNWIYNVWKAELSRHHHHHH

Substance: enterokinase
- cleavage and activation of the zymogen (SDS-PAGE mobility shift and Western blot): This demonstrates the quantitative cleavage of the expressed and purified zymogen to generate the processed and activated protease
